For the experiment, the target named is recombinant human Trop-2/Fc/His fusion protein (manufactured by R&D) (human) (UniProt P09758). The experiment can be described thus: SPR (Biacore T100), Trop-2/Fc/His captured by Tetra-His antibody on CM5 chip, antibody as analyte, Bivalent Analyte model, mean of duplicates.
Sequence of recombinant human Trop-2/Fc/His fusion protein (manufactured by R&D) (human) (P09758 27-274 limits assumed): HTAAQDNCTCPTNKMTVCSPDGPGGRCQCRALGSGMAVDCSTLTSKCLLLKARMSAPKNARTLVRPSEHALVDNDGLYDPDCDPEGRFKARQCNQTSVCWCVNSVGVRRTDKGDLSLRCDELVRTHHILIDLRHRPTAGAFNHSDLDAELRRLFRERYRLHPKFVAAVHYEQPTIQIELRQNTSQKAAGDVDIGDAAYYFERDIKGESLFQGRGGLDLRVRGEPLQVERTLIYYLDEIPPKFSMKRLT

Take “77220 (manufactured by R&D), anti-Trop-2 mouse monoclonal antibody”: the Kd was 1.1 nM, the dissociation rate constant (koff) is 0.00061 s⁻¹ and the kon was determined as 555000 M⁻¹ s⁻¹.

Turning to “MOv16 (manufactured by Alexis), anti-Trop-2 mouse monoclonal antibody”, the Kd was 0.929 nM, the koff is 0.000184 s⁻¹ and the on-rate constant (kon) is 183000 M⁻¹ s⁻¹.

These data come from US20120237518A1.
